Test results as given in paper PMC6079011, “Salvage of the 5-deoxyribose byproduct of radical SAM enzymes” (Nature Communications, 2018).

Assays:
DrdA (aldolase) = DrdA (aldolase) (Bacillus thuringiensis, UniProt P0DTQ0); conditions: tag-free protein, Mn2+ site, co-crystallised with 20 equivalents DHAP, pH 7.5
DEP1 (AtDEP1) = biological target: T1, DEP1 (AtDEP1) (Arabidopsis thaliana, UniProt Q9FN41); experiment: coupled glycerol-3-phosphate dehydrogenase NADH assay; format: biochemical; conditions: aldol cleavage, 500 µM dRu1P, pH 8.2, 21 °C
T1 construct: gene At5g53850; C-terminal His6-tag, from cDNA clone, expressed in E. coli BL21 CodonPlus (DE3)-RIPL; class II aldolase fused to HAD phosphatase domain
T1 sequence (Q9FN41 2-507): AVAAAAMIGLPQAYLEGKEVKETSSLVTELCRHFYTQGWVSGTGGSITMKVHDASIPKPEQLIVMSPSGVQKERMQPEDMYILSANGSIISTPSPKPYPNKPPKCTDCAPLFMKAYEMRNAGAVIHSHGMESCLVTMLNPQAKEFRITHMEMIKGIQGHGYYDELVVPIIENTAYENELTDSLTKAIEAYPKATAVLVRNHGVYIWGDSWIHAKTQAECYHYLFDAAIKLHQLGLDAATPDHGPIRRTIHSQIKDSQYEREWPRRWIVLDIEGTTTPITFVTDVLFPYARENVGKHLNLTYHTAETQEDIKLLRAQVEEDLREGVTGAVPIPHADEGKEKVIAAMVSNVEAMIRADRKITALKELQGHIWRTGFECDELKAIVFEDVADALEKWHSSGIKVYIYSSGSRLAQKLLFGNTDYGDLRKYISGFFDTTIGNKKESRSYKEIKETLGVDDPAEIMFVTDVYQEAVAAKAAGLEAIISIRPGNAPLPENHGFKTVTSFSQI

[1] = biological target: B. thuringiensis 5-deoxyribose disposal isomerase DrdI, His6-tagged (Bacillus thuringiensis HD73-20 (BGSC 4D22)); experiment: SEC; native molecular mass estimated on a Superdex 200 column, eluted with 50 mM HEPES-KOH, 50 mM KCl, pH 7.5, 10% glycerol
[2] = substrate: Nc1ncnc2c1ncn2[C@@H]1O[C@H](COP(=O)(O)OP(=O)(O)OP(=O)(O)O)[C@@H](O)[C@H]1O; experiment: coupled pyruvate kinase/lactate dehydrogenase NADH assay; format: biochemical, Bacillus thuringiensis; conditions: co-substrate 5-deoxyribose (500 µM), Mg2+, pH 8.0, 21 °C
From the text: coupled pyruvate kinase/lactate dehydrogenase NADH assay on DrdK (kinase)

[3] = biological target: the molecule itself; experiment: SEC; native molecular mass estimated on a Superdex 200 column, eluted with 50 mM HEPES-KOH, 50 mM KCl, pH 7.5, 10% glycerol
[4] = biological target: the molecule itself; experiment: crystal structure; X-ray, 1.55 Å, space group P42(1)2, one monomer per asymmetric unit; crystals from 200 mM NaCl, 28% PEG-3350, 100 mM HEPES-KOH pH 7.5, 20 °C
[5] = substrate: C[C@H]1O[C@H](OP(=O)(O)O)[C@H](O)[C@@H]1O; experiment: coupled DrdA/glycerol-3-phosphate dehydrogenase NADH assay; format: biochemical, Bacillus thuringiensis; conditions: pH 8.0, 21 °C
From the text: coupled DrdA/glycerol-3-phosphate dehydrogenase NADH assay on DrdI (isomerase)

O=C(CO)COP(=O)(O)O [dihydroxyacetone phosphate]
X-ray crystal structure of complex (DrdA (aldolase)): we solved the co-complex structure of DHAP bound to DrdA

C[C@@H](O)[C@@H](O)C(=O)COP(=O)(O)O [5-deoxyribulose 1-phosphate]
coupled glycerol-3-phosphate dehydrogenase NADH assay (DEP1 (AtDEP1)): Recombinant DEP1 showed aldolase activity towards 5-deoxyribulose-1-phosphate

B. thuringiensis 5-deoxyribose disposal isomerase DrdI, His6-tagged (enzyme)
stoichiometry N [1]: 2

B1: B. thuringiensis 5-deoxyribose disposal kinase DrdK, His6-tagged (enzyme, UniProt P0DTQ2 1-409, looked up)
chain: MSKFTKYFLMEASDVIAYVKEKLSKFEHAKGLKCKEIGDGNLNYVFRVWDKKENMSVIVKQAGDTARISDEFKLSTNRIRIESDVLQLENELAPGLVPKVYLFDSVMNCCVMEDLSNHTILRTALINHQIFPQLADDLTTFMVNTLLLTSDVVMNHKEKKELVKNYINPELCEITEDLVYSEPFTNHNKRNELFPLNEGWIREHIYSDKELRMEVAKRKFSFMTNAQALLHGDLHTGSVFVRDDSTKVIDPEFAFYGPMGYDVGNVMANLMFAWVNADATMPPGAEKDTYMDWLQTTMVEVIDLFKKKFLDAWDIHVTEIMAKEEGFNEVYLQSVLEDTAAVTGLELIRRIVGLAKVKDITCIENEEARARAEQICLKVAKSFILRANQYRTGRSFVETLKEQSMHYAE
notes: Cloned into pET28b (XbaI/XhoI amplicon into NheI/XhoI); No step that removes the tag is described; also called 5-deoxyribose kinase; source: E. coli BL21 CodonPlus (DE3)-RIPL, purified (Ni-NTA)
Km [2]: 216 ± 63 µM
kcat [2]: 17.1 ± 2.5 s⁻¹
kcat/Km [2]: 79000 ± 26000 M⁻¹ s⁻¹
stoichiometry N [3]: 2

B2: B. thuringiensis aldolase DrdA, tag-free variant (enzyme)
chain: MLLQKEREEIVAYGKKMISSGLTKGTGGNISIFNREQGLVAISPSGLEYYETKPEDVVILNLDGEVIEGERKPSSELDMHLIYYRKREDINALVHTHSPYAKTIASLGWELPAVSYLIAFAGPNVRCAPYETFGTKQLADAAFEGMIDRRAVLLANHGLIAGANNIKMAFTVAEEIEFCAQIYYQTKSIGEPKLLPEDEMENLAKKFEGYGQQ
notes: also called tag-free version; His-tag-free protein; source: E. coli BL21(DE3), purified (ammonium sulfate precipitation, MonoQ anion exchange, Superdex 200 SEC)
stoichiometry N [4]: 4

B3: DrdI (isomerase) (Bacillus thuringiensis serovar kurstaki str. HD73) (protein)
chain: MMEEQLIPIQWKDDALVLLDQTLLPNEIVYESFKTAESVWDAIQVMKVRGAPVIGVSAAYGVYLGVKEFAESTEEGFMDEVRKVCTYLATSRPTAVNLFWALERMESVAADNIHLSISQLKDRLLEEAKEIHREDEEINRQIGEHALTLFHDGMGVLTHCNAGALATTKYGTATAPMYLAKEKGWDLKIFSDETRPRLQGSTLTALELQRAGIDVTVITDNMAAMVMSQGKIDAVIVGCDRVAANGDIANKIGTLGVSILAKYYNIPFYVAAPTPTIDLKTPTGKEIPIEERDASEVINRFGQYSAPKESKVYNPAFDVTPHENVTAIITEKGIVKAPFTENLKKIFQ
notes: full length, N-terminal His6-tag with short linker, expressed in E. coli BL21 CodonPlus (DE3)-RIPL; dimer
Km [5]: 22 ± 7 × 10^3 µM
kcat [5]: 3.5 ± 0.7 s⁻¹
kcat/Km [5]: 160 ± 60 M⁻¹ s⁻¹
